According to US20170052184A1:
Read-outs that look alike come from different tables or passages of the source.

Tests used:
[1] = target: T1, HCV bt-141-161 (Peptide 2, HCVc 141-161) (Hepatitis C virus (numbering per HCV-1)); assay: EIA, captured mAb + biotin peptide
T1 sequence (peptide, biotin (carboxy-terminal per [p-0227]; N-terminal per [p-0050])): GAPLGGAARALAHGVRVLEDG

[2] = target: bovine serum albumin (bovine) (UniProt P02769); assay: EIA, BSA control
[3] = target: bovine serum albumin (BSA) (bovine) (UniProt P02769); assay: EIA, BSA background
Sequence of bovine serum albumin (BSA) (bovine) (P02769 25-607 limits assumed): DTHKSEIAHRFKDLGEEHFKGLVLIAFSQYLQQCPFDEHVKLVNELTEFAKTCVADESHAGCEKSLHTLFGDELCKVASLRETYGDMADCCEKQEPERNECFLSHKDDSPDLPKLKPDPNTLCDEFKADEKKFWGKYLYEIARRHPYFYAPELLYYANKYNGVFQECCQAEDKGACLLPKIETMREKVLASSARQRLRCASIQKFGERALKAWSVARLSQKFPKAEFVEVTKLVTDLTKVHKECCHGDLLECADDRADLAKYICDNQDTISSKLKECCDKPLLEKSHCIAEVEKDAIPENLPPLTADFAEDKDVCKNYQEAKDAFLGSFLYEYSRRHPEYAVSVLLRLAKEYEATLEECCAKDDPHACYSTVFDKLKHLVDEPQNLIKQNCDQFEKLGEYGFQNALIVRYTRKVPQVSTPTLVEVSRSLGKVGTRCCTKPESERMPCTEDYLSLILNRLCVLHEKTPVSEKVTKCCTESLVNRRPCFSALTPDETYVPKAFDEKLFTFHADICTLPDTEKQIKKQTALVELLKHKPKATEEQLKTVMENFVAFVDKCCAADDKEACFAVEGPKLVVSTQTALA

[4] = target: bovine serum albumin (BSA) (bovine) (UniProt P02769); assay: EIA, BSA background; remark: listed apart in the source
HCV Core1-169 (HCV-1) [5] = target: HCV Core1-169 (HCV-1) (UniProt P26664); assay: EIA, core1-169 coated on plate
HCV Core1-169 (HCV-1) [6] = target: HCV Core1-169 (HCV-1) (UniProt P26664); assay: EIA, core1-169 captured by mAb 14-153-229
[7] = target: T2, HCV bt-151-171 (Peptide 3, HCVc 151-171) (Hepatitis C virus (numbering per HCV-1)); assay: EIA, captured mAb + biotin peptide
T2 sequence (peptide, biotin (carboxy-terminal per [p-0227]; N-terminal per [p-0050])): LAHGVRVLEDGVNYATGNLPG

[8] = target: T3, HCV bt-134-154 (Peptide 1, HCVc 134-154) (Hepatitis C virus (numbering per HCV-1)); assay: EIA, captured mAb + biotin peptide
T3 sequence (peptide, biotin (carboxy-terminal per [p-0227]; N-terminal per [p-0050])): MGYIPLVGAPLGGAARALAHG

[9] = target: HCV Core1-169 (hepatitis C virus (HCV-1)) (UniProt P26664); assay: SPR sandwich, capture mAb C11-14
[10] = target: HCV Core1-169 (hepatitis C virus (HCV-1)) (UniProt P26664); assay: SPR sandwich, capture mAb C11-3
[11] = target: HCV Core1-169 (hepatitis C virus (HCV-1)) (UniProt P26664); assay: SPR sandwich, capture mAb C11-9
[12] = target: HCV Core1-169 (hepatitis C virus (HCV-1)) (UniProt P26664); assay: SPR sandwich, capture mAb C11-7
[13] = target: T4, HCV Core1-169 (HCV-1), P26664; assay: EIA, core1-169 coated on plate; conditions: remark: other sources report otherwise
T4 chain: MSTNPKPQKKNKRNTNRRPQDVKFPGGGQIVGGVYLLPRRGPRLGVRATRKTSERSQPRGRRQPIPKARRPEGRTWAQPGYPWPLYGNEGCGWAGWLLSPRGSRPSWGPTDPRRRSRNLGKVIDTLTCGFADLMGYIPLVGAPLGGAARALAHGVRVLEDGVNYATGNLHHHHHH

[14] = target: T4, HCV Core1-169 (HCV-1), P26664; assay: EIA, core1-169 captured by mAb 14-153-229; conditions: remark: other sources report otherwise
[15] = target: T5, HCV Core1-169 (hepatitis C virus (HCV-1)), P26664; assay: SPR sandwich, capture mAb C11-9; conditions: remark: other sources report otherwise
T5 chain: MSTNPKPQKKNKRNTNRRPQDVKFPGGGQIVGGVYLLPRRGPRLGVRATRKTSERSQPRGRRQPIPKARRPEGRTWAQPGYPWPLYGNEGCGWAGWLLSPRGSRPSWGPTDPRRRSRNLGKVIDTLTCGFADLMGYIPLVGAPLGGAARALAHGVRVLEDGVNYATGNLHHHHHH

[16] = target: T5, HCV Core1-169 (hepatitis C virus …); assay: SPR sandwich, capture mAb C11-3; conditions: remark: other sources report otherwise
[17] = target: T5, HCV Core1-169 (hepatitis C virus …); assay: SPR sandwich, capture mAb C11-14; conditions: remark: other sources report otherwise
[18] = target: T5, HCV Core1-169 (hepatitis C virus …); assay: SPR sandwich, capture mAb C11-7; conditions: remark: other sources report otherwise

Sequence of bovine serum albumin (bovine) (P02769 25-607 limits assumed): as the sequence (P02769 25-607 limits assumed) above

B1: HCV 208A-692 (antibody, V domains shown)
VH: QGQMQQSGAELAKPGASVKLSCKTSGFTFSSSYISWLKQKPGQSLEWIAWIFAGTGNTNYNQKFTDKAQLTVDTSSSTAYMQLSSLTTEDSAIYYCAISGTGFTYWGQGTLVTVSA
VL: EVLMTQSPLSLPVSLGDQASISCRSSQSLEHSNGNTYLEWFLQRPGQPPKLLIYKVSSRFSGVPDRFSGSGSGTDFTLKISRVEAEDLGVYYCFQGSHVPFTFGSGTKLAIKR
Reactivity (OD 492 nm) [1]: 0.38 OD units
Reactivity (OD 492 nm) [2]: 0.06 OD units
OD (A492) [3]: 0.09 OD
OD (A492) [4]: 0.06 OD

B2: HCV 208A-874 (antibody, V domains shown)
VH: QVQLQQPGAELVKPGASVKLSCKASGYTLSSYWMHWVKQRPGQGLEWIGEIHPSDSYTSYNQKFKDKATLTVDKSSSTAYMQLSSLTSEDSAVYYCARGGYYRYDEFAYWGQGTLVTVSA
VL: DIVMTQSHKFMSTSIGDRVSITCKASQNVSPAVAWYQQKPGQSPKLLIYSASSRYTGVPDRFTGSGSGTAFTFTISSVQAEDLAVYFCQQHFSTPWTFGGGTMLEIKR
Reactivity (OD 492 nm) [2]: 0.05 OD units
OD (A492) [3]: 0.1 OD
OD (A492) (HCV Core1-169 (HCV-1) [5]): 0.45 OD
OD (A492) [4]: 0.06 OD
OD (A492) (HCV Core1-169 (HCV-1) [6]): 0.18 OD

B3: HCV 208A-967 (antibody, V domains shown)
VH: QVQLEESGPGLVAPSQSLSITCTVSGFSLTSYGVHWVRQPPGKGLEWLGVIWAVGSINYNSALMSRLSISKDNSKSQVFLKMNSLRTDDTAMYYCARDRTTATPFFDYWGQGTTLTVSS
VL: DIVLTQSPASLAGSLGKRAPISCKASESVNFFGTNLIHWYQQKPGQPPKLLIYHASNLKTGVPARFRGRGSKTNFPLPIDPVEENDVAIYYCLQNRKIPLTFGVGTKLELKR
Reactivity (OD 492 nm) [1]: 0.73 OD units
Reactivity (OD 492 nm) [7]: 0.18 OD units
Reactivity (OD 492 nm) [8]: 0.52 OD units
expected percent binding [9]: < 1%
expected percent binding [10]: < 1%
expected percent binding [11]: < 1%
expected percent binding [12]: < 1%
Reactivity (OD 492 nm) [2]: 0.07 OD units
OD (A492) [3]: 0.15 OD
OD (A492) (HCV Core1-169 (HCV-1) [5]): 1.08 OD
OD (A492) [4]: 1.3 OD
OD (A492) (HCV Core1-169 (HCV-1) [6]): 0.18 OD

B4: HCV 208A-983 (antibody, V domains shown)
VH: QGQMQQSGAELVKPGASVKLSCKTSGFTFSSSYFSWLKQKPGQSLEWIAWIYAGTGNTIYNQKFTDKAQLTVDTASSTAFMQLSSLTIEDSAIYYCAISGTGFTYWGQGTLVTVSA
VL: DVLMTQTPLSLPVNLGDQASISCRSSQSLLHSNGNTYLEWFLQKPGQSPKLLIYNVSNRFSGVPDRFSGSGSGTDFTLKISRVEAEDLGVYYCFQGSHVPFTFGSGTKLAIKR
OD (A492) [13]: 0.12 OD
OD (A492) [14]: 0.64 OD
expected percent binding [15]: < 1%
expected percent binding [16]: < 1%
expected percent binding [17]: < 1%
expected percent binding [18]: < 1%

B5: HCV 208B-174 (antibody, V domains shown)
VH: EVKLEESGGGLVQPGGSMKLSCVASGFSFSSYWMSWVRQSPEKGLDWVAEIRLRSDNYATHYAESVKGRFTISRDDSISRLYLQMNTLRAEDTGIYYCTWMTYWGQGTLVTVSA
VL: QNVLTQSPAIMSASPGEKVTMSCSASSSVTYMFWYQLKPESSPRLLIYDTSNLASGVPVRFSGSGSGTSYSLTISRMEAEDAATYYCQEWSSYPLTFGAGTKLDLKR
OD (A492) [13]: 0.15 OD
OD (A492) [14]: 0.75 OD
expected percent binding [15]: < 1%
expected percent binding [16]: 1.6%
expected percent binding [17]: 1.6%
expected percent binding [18]: 1.5%

B6: HCV 208B-408 (antibody, V domains shown)
VH: EVKLVESGGGLVQPGGSLRLSCASSGFTFTDYYMSWVRQPPGKALEWLGFIRNKAYGYTTEFSASVNGRFTISRDDSQSVPYLQMNTLRAEDSATYYCARVLYYDYGGFAYWGQGTLVTVST
VL: DIQMTQSPASLSASVGETVTITCRASGNIHTYLAWYQQKQGKSPQLLVYNANTLADGVPSRFSGSGSGTQFSLKINSLQPDDFGSYYCQHFWSAPWTFGGGTQLEIKR
Reactivity (OD 492 nm) [1]: 0.2 OD units
Reactivity (OD 492 nm) [2]: 0.06 OD units
OD (A492) [3]: 0.1 OD
OD (A492) [4]: 0.08 OD

B7: HCV 208B-471 (antibody, V domains shown)
VH: QGQLQQSGPVLVKPGASEILYCKTSGFTFSSTYISWLKQKPGQSLEWIAWIYAGTGATNYNQKFTGKAQLTVDASSNTAYMHFSGLTPEDSAIYYCAISGAGVYWGQGTLVTVSA
VL: DVVMTQTPLSLPVSLGDQASISCRSSQSLLHSNGNTYLEWYLQKPGQSPNLLIYNVSNRFSGVPDRFSGSGSGTDFALKISRVGAEDLGVYYCFQGSHVPLTFGAGTKLELKR
OD (A492) [13]: 0.24 OD
OD (A492) [14]: 0.35 OD
expected percent binding [15]: < 1%
expected percent binding [16]: < 1%
expected percent binding [17]: < 1%
expected percent binding [18]: < 1%

B8: HCV 208B-822 (antibody, V domains shown)
VH: QVQLKQSGPGLVQPSQSLSITCTVSGFSLITYGVHWVRQSPGKGLEWLGVIWGGGSTGYNAAFVSRLNITKDNSKSQVFFKMNSLQPDDTAIYYCARNGGATVFDYWGQGTTLTVSS
VL: DIVMTQSPATLSVTPGDRVSLSCRASQTISDYLHWYQQKSHESPRLLIKYASQSISGIPSRFSGSGSGSHFTLSINSVEPEDVGVYYCQNGHSFPWTFGGGTKLEIKR
Reactivity (OD 492 nm) [2]: 0.05 OD units
OD (A492) [3]: 0.11 OD
OD (A492) [4]: 0.06 OD

B9: HCV 208B-826 (antibody, V domains shown)
VH: DVQLVESGGGLVQAGGSRKLSCAASGFPFSSFGMHWVRQAPEKGLEWVASISSRTSKIYYADNLKGRFTISRDNPKNTLFLQMTSLGSEDTAMYYCVRSVFGNSYWFFDVWGAGTTVTVSS
VL: DIVLTQSPATLSVTPGDRVSLSCRASQRIYNYLHWYQQKSHESPRLLTKYASQSISGIPSRFSGSGSGTDFILTINSVETEDFGMYFCQQSNSWPLTFGAGTKLELRR
Reactivity (OD 492 nm) [2]: 0.07 OD units
OD (A492) [3]: 0.41 OD
OD (A492) [4]: 0.08 OD

B10: HCV 208B-911 (antibody, V domains shown)
VH: QVHLQQPGAELVRPGVSVKLSCKASGYTFTTYSINWMKQRPGQGLEWIGNIYPSTSHTNYNQKFRDKATMTVDKSSSTAYMQLSSPTSEDSAVYYCTINAYSMDYWGQGTSVTVSS
VL: QIVLTQSPEIMSASPGEKVTITCSASSSVSFMYWFQQKPGTSPKLWIYITSNLASGVPTRFSGSGSGTSYSLTISRMEAEDAATYYCQQRSSFPYTFGGGTKLEMKR
Reactivity (OD 492 nm) [2]: 0.1 OD units
OD (A492) [3]: 0.17 OD
OD (A492) [4]: 1.17 OD

B11: HCV 208A-422 (antibody, V domains shown)
VH: DVQLQESGPGLVNPSQSLSLTCSVTGYSITSGYYWIWIQQSPGNKLEWMGYIKYDGGNNYSPSLKNRISIARDTSKNQCFLKLNSVTIEDTATYYCTRGSDSFDYWGQGTTLTVSS
VL: DIVLTQSPASLAVSLGQRAIISCKASQSVSFAGTNLMHWYQQKPGQQPKLLIYRASNLETGVPTRFSGSGSRTDFTLNIHPVEEDDAATYYCQQSREYYTFGGGTKLEIKR
Reactivity (OD 492 nm) [2]: 0.07 OD units
OD (A492) [3]: 0.11 OD
OD (A492) (HCV Core1-169 (HCV-1) [5]): 1.68 OD
OD (A492) [4]: 1.1 OD
OD (A492) (HCV Core1-169 (HCV-1) [6]): 0.18 OD

B12: HCV 208A-126 (antibody, V domains shown)
VH: QLQQSGPVLVKPGASVMISCKTSGYTFTENAMHWVKQSHGKSLEWIGGVNPNNGDTIFNQKFKGKATLTVDKSSNTAFTELRSLPSEESTVYYCVRRGLDFFDYWGQGTSVTVSS
VL: DIVLTQSPASLAVSLGQRATISCRASQSVSTSRYSYMHWYQQKPGQPPKLLIKYASNLESGVPARFSGSGSGTDFTLNIHPVAEEDTAAYYCQHSWEFPFTFGSGTKLEIKR
Reactivity (OD 492 nm) [2]: 0.1 OD units
OD (A492) [3]: 0.07 OD
OD (A492) [4]: 0.24 OD

B13: HCV 208A-210 (antibody, V domains shown)
VH: QVQLQQSGPELVKPGASMRISCKASGYTFTSYYVHWIKQRPGQGLEWIGCIYPGDVNTDYNEKFKGKATLTADKSSSTAYMQVSTLTSEDSAIYFCVLYYYGSFAYWGQGTLVTVSA
VL: EIVLTQSPAITAASLGQNVTITCRASSSVSYMHWYRQKSGTSPQLWIYEISRRASGVPARFRASGSGTSYSLTISSMEAEDAAIYYCQQWNYPLTFGAGTKLEVKR
Reactivity (OD 492 nm) [2]: 0.06 OD units
OD (A492) [3]: 0.08 OD
OD (A492) [4]: 0.06 OD
